# Patent US20190100587A1 (COVAGEN, published 2019)
# Where two headings read alike, the source gives them in different places.
# B1: mAb1 IgG1 (antibody)
# heavy: not shown
# light: QVVLTQSPAIMSAFPGEKVTMTCSASSSVSYMNWYQQKSGTSPKRWIYDSSKLASGVPARFSGSGSGTSYSLTISSMETEDAATYYCQQWSRNPPTFGGGTKLQITRTVAAPSVFIFPPSDEQLKSGTASVVCLLNNFYPREAKVQWKVDNALQSGNSQESVTEQDSKDSTYSLSSTLTLSKADYEKHKVYACEVTHQGLSSPVTKSFNRGEC
# notes: Human IgG1 antibody specific to human CD3, wild-type Fc; also called unmodified IgG; unmutated mAb1 IgG1
# Assays:
# [1] = target: T1, His-tagged human FcγRIIA (R&D, carrier-free formulation) (human, UniProt P12318 36-218, limits assumed); assay: AlphaScreen competition assay; titrated antibody competes with biotinylated B21M IgG1 for His-tagged human FcγRIIA
# T1 construct: also called CD32A
# T1 sequence (looked up): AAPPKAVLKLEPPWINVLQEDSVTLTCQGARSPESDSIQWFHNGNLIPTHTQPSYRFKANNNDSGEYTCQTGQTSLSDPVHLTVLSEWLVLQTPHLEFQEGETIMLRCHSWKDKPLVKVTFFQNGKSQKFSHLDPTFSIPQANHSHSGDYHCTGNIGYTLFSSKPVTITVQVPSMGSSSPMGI
# [2] = target: T2, human recombinant FcγRI (Sino Biological) (human, UniProt P12314 16-288, limits assumed); assay: SPR (BIAcore), FcγRI on chip, steady-state model
# T2 construct: Amine-coupled to a BIAcore CM5 chip (1500 RU); also called CD64
# T2 sequence (P12314 16-288 limits assumed): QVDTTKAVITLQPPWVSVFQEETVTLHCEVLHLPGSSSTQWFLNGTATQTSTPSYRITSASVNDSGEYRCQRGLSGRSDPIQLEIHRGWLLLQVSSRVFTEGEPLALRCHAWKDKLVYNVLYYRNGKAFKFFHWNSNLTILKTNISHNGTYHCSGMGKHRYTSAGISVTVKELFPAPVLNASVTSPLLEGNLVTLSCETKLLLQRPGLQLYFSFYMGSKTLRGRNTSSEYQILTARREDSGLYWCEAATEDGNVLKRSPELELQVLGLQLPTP
# [3] = target: T1, His-tagged human FcγRIIA (R&D, …); assay: AlphaScreen competition assay; titrated antibody competes with biotinylated B21M IgG1 for His-tagged human FcγRIIA; remark: listed apart in the source
# [4] = target: T3, human recombinant FcRn (Sino Biological) (human, UniProt P55899 24-297; P61769 21-119); assay: SPR (BIAcore), FcRn on chip, pH 6.0, steady-state model
# T3 construct: Amine-coupled to a CM5 chip (600 RU); also called neonatal Fc receptor
# T3 sequence (P55899 24-297 limits assumed, chain 1 of 2): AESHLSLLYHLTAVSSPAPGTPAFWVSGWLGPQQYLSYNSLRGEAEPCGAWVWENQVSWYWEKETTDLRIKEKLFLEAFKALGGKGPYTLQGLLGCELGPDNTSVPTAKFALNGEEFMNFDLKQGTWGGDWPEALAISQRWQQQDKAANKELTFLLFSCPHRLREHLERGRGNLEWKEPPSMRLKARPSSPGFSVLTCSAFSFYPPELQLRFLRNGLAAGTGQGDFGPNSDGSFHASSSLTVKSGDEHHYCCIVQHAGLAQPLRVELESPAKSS
# T3 sequence (P61769 21-119 limits assumed, chain 2 of 2): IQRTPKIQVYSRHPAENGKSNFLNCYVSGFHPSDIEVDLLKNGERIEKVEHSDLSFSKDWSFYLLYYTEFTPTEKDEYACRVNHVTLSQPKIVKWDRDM
# [5] = target: T2, human recombinant FcγRI (Sino …); assay: SPR (BIAcore), FcγRI on chip, 1:1 Langmuir model
# [6] = target: T2, human recombinant FcγRI (Sino …); assay: SPR (BIAcore), FcγRI on chip, kinetic (koff/kon)
# [7] = target: T4, His-tagged human FcγRIIB (R&D, carrier-free formulation) (human, UniProt P31994 46-217, limits assumed); assay: AlphaScreen competition assay; titrated antibody competes with biotinylated B21M IgG1 for His-tagged human FcγRIIB
# T4 construct: also called CD32B
# T4 sequence (looked up): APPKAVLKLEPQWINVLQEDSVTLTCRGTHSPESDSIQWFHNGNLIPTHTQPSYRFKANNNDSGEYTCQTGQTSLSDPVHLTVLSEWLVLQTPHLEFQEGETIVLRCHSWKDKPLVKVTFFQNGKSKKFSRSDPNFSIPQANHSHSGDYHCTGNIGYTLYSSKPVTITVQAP
# [8] = target: T5, His-tagged human FcγRI (R&D, carrier-free formulation) (human, UniProt P12314 16-288); assay: AlphaScreen competition on His-tagged FcγRI; competitor biotinylated B21M LALA IgG1
# T5 construct: also called CD64; human FcγR1
# T5 sequence (P12314 16-288 limits assumed): as the sequence (P12314 16-288 limits assumed) above
# [9] = target: T6, His-tagged human FcγRIIIA (R&D, carrier-free formulation) (human, UniProt P08637 17-208); assay: AlphaScreen competition assay; titrated antibody competes with biotinylated B21M IgG1 for His-tagged human FcγRIIIA
# T6 construct: also called CD16A
# T6 sequence (P08637 17-208 limits assumed): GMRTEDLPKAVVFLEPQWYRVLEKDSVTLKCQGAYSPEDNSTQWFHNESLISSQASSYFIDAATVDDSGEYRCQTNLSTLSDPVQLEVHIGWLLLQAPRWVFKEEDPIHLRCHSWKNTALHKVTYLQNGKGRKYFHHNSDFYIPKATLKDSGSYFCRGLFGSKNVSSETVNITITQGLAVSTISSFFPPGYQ
# [10] = target: T7, human recombinant FcγRIIIA (158F; R&D Systems) (human, UniProt P08637 17-208); assay: SPR (BIAcore), FcγRIIIA 158F on chip, steady-state model
# T7 construct: Amine-coupled to a BIAcore CM5 chip (1400 RU); also called CD16A
# T7 sequence (P08637 17-208 limits assumed): as above
# [11] = target: T7, human recombinant FcγRIIIA (158F; R&D …); assay: SPR (BIAcore), FcγRIIIA 158F on chip, 1:1 Langmuir model
# [12] = target: T8, human CD3 on CD3+ Jurkat cells (human); assay: flow cytometry on CD3+ Jurkat cells, bound antibody detected with anti-human IgG-Alexa488
# T8 construct: whole, on cells
# T8 sequence (P07766 23-207, chain 1 of 4): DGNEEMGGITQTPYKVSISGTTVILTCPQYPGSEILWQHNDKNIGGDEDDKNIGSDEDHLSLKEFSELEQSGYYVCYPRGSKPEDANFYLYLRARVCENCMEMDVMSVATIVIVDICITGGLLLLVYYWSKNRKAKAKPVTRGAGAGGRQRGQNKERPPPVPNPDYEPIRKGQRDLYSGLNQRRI
# T8 sequence (P09693 23-182, chain 2 of 4, further chain): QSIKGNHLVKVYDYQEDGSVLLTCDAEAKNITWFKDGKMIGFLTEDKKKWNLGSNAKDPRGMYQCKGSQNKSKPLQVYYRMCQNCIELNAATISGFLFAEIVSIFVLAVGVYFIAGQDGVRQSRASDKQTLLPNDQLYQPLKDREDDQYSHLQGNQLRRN
# T8 sequence (P04234 22-171, chain 3 of 4, further chain): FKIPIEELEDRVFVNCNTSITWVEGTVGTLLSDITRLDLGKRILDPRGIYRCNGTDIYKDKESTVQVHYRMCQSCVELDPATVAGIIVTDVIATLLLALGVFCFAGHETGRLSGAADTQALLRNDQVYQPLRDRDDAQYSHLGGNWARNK
# T8 sequence (P20963 22-164, chain 4 of 4, further chain): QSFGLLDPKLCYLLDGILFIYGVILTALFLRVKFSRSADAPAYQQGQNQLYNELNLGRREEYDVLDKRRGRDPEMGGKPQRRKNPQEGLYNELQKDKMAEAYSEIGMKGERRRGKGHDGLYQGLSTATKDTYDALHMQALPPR
# [13] = target: T7, human recombinant FcγRIIIA (158F; R&D …); assay: SPR (BIAcore), FcγRIIIA 158F on chip, kinetic (koff/kon)
# [14] = target: T6, His-tagged human FcγRIIIA (R&D, …); assay: AlphaScreen competition assay; titrated antibody competes with biotinylated B21M IgG1 for His-tagged human FcγRIIIA; remark: listed apart in the source
# [15] = target: Human C1q (EMD Millipore) (human, UniProt P02745 23-245; P02746 28-253; P02747 29-245); assay: SPR (BIAcore T100), antibody on CM5 chip, C1q injected, steady-state model
# Sequence of Human C1q (EMD Millipore) (P02745 23-245 limits assumed, chain 1 of 3): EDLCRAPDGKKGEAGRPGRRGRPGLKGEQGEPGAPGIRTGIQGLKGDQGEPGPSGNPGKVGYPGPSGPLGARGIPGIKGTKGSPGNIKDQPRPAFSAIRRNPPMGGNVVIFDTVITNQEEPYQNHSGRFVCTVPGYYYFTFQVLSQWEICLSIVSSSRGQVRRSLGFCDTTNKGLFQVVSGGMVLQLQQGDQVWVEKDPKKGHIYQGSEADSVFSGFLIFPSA
# Sequence of Human C1q (EMD Millipore) (P02746 28-253 limits assumed, chain 2 of 3): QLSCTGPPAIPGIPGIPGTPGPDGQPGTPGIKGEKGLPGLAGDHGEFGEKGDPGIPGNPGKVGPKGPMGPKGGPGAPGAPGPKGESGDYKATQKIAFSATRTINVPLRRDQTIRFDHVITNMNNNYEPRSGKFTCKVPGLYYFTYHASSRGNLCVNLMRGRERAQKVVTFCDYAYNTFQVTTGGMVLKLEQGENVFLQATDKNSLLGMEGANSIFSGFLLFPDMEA
# Sequence of Human C1q (EMD Millipore) (P02747 29-245 limits assumed, chain 3 of 3): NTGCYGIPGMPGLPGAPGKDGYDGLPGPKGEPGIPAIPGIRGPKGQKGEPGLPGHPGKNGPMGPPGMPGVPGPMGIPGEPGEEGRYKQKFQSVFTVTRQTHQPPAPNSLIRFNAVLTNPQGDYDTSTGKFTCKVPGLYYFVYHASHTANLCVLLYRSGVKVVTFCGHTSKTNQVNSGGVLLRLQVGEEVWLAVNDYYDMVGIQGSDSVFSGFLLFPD
binder,measurement,setting,value
B1,IC50 (read off the curve),[1],~200 nM
same,Kd,[2],243 nM
same,IC50 (read off the curve),[3],~200 nM
same,Kd,[4],470 nM
same,koff,[5],0.00729 s⁻¹
same,kon,[5],64900 M⁻¹ s⁻¹
same,Kd,[6],112 nM
same,IC50 (read off the curve),[7],~200 nM
same,IC50,[8],2.27 nM
same,IC50 relative to IgG1,[8],1 fold
same,IC50 (read off the curve),[9],~40 nM
same,Kd,[10],956 nM
same,koff,[11],0.0214 s⁻¹
same,kon,[11],31800 M⁻¹ s⁻¹
same,EC50 (read off the curve),[12],~0.1 nM
same,Kd,[13],674 nM
same,IC50 (read off the curve),[14],~40 nM
same,Kd,[15],30 nM
